Measured values reported in patent publication US11224662B2, “Methods and therapeutics comprising ligand-targeted ELPs” (priority 2012, dated 2022).

Experiments:
[1] = Dynamic light scattering of ELP nanoparticles; type: physicochemical; conditions: for formation of nanoparticles: ELP without knob, S96 and I96 data not shown; for Hydrodynamic radius (nm) at 37° C.: 25 μM in PBS
Procedure: (§1) To explore the temperature-dependent phase behavior of the ELPs, optical density and hydrodynamic radius were observed over a range of temperatures. Knob-S96, S48148 and knob-S48148 were diluted to 25 μM in PBS on ice and the absorbance at 350 nm was monitored with a DU800 UV-Vis spectrophotometer (Beckman Coulter, Brea, Calif.) at a temperature gradient of 1° C./minute. […] Then 90 μL sample of was transferred into a 384 well microplate and covered with 20 μL mineral oil. The microplate and mineral oil were pre-chilled at 4° C. at least for 1 hour. The microplate was centrifuged at 4° C. to remove air bubbles from samples before and after addition of mineral oil. Then the sample was measured in a DynaPro plate reader (Wyatt Inc., Santa Barbara, Calif.) at temperature intervals of 1° C. The resulting hydrodynamic radii were collected and analyzed by Dynamics (Wyatt Inc., Santa Barbara, Calif.).

[2] = tested on: transformed mouse hepatocytes; experiment: Live cell uptake of rhodamine-conjugated ELP/knob-ELP in hepatocytes; type: cell-based; conditions: 10 μM rhodamine-labeled, 30 minutes at 37° C., confocal microscopy, LYSOTRACKER green
Procedure: To track cellular uptake, the ELPs S48148 and knob-S48148 were conjugated with a detectable label, NHS-Rhodamine (Thermo Fisher Scientific Inc, Rockford, Ill.) via covalent modification of primary amines at the amino end of the peptide. For S48148, the only available amine is at the amino terminus; however, knob-S48148 has an additional 11 lysine residues that may be sites of modification. The conjugation was performed in 100 mM borate buffer for 2 hours at 4° C., and the conjugated ELP was separated by size exclusion chromatography on a PD10 desalting column (GE Healthcare, Piscataway, N.J.).
To observe uptake into mouse hepatocytes, cells were cultured on 35 mm glass coverslip-bottomed dishes with medium [(DMEM (4.5 g/L) containing 10% fetal bovine serum, g/ml insulin, and 0.02 [μg/ml epidermal growth factor]. Uptake studies were conducted when hepatocytes reached 70% confluence. After washing with warm fresh medium, hepatocytes were cultured in medium containing 10 μM of either S48148 or knob-S48148 conjugated with rhodamine, and 75 nM LYSOTRACKER® green. After 30 minutes incubation at 37° C., the cells were rinsed with warm fresh medium to remove the free knob-ELP/ELP in the medium. Next cells were incubated with 75 nM LYSOTRACKER® green in a 37° C. incubation chamber. […]

[3] = Temperature-dependent optical density (turbidity) of ELP fusion peptides; type: physicochemical; conditions: for Critical aggregation temperature: optical density at 350 nm by UV-Vis spectrophotometer; for phase transition behaviour in optical density over temperature gradient: monoblock knob-ELPs, single increase in optical density
Procedure: as §1

B1: (VPGIG)96 (SEQ ID. NO: 14) (protein)
chain: VPGIGVPGIGVPGIGVPGIGVPGIGVPGIGVPGIGVPGIGVPGIGVPGIGVPGIGVPGIGVPGIGVPGIGVPGIGVPGIGVPGIGVPGIGVPGIGVPGIGVPGIGVPGIGVPGIGVPGIGVPGIGVPGIGVPGIGVPGIGVPGIGVPGIGVPGIGVPGIGVPGIGVPGIGVPGIGVPGIGVPGIGVPGIGVPGIGVPGIGVPGIGVPGIGVPGIGVPGIGVPGIGVPGIGVPGIGVPGIGVPGIGVPGIGVPGIGVPGIGVPGIGVPGIGVPGIGVPGIGVPGIGVPGIGVPGIGVPGIGVPGIGVPGIGVPGIGVPGIGVPGIGVPGIGVPGIGVPGIGVPGIGVPGIGVPGIGVPGIGVPGIGVPGIGVPGIGVPGIGVPGIGVPGIGVPGIGVPGIGVPGIGVPGIGVPGIGVPGIGVPGIGVPGIGVPGIGVPGIGVPGIGVPGIGVPGIGVPGIGVPGIGVPGIGVPGIGVPGIG
For B1, the formation of nanoparticles [1] was “do not form nanoparticles”.

B2: G(VPGSG)48(VPGIG)48Y (SEQ ID. NO: 10) (protein)
chain: GVPGSGVPGSGVPGSGVPGSGVPGSGVPGSGVPGSGVPGSGVPGSGVPGSGVPGSGVPGSGVPGSGVPGSGVPGSGVPGSGVPGSGVPGSGVPGSGVPGSGVPGSGVPGSGVPGSGVPGSGVPGSGVPGSGVPGSGVPGSGVPGSGVPGSGVPGSGVPGSGVPGSGVPGSGVPGSGVPGSGVPGSGVPGSGVPGSGVPGSGVPGSGVPGSGVPGSGVPGSGVPGSGVPGSGVPGSGVPGSGVPGIGVPGIGVPGIGVPGIGVPGIGVPGIGVPGIGVPGIGVPGIGVPGIGVPGIGVPGIGVPGIGVPGIGVPGIGVPGIGVPGIGVPGIGVPGIGVPGIGVPGIGVPGIGVPGIGVPGIGVPGIGVPGIGVPGIGVPGIGVPGIGVPGIGVPGIGVPGIGVPGIGVPGIGVPGIGVPGIGVPGIGVPGIGVPGIGVPGIGVPGIGVPGIGVPGIGVPGIGVPGIGVPGIGVPGIGVPGIGY
For B2, the “size by dynamic light scattering (BSA; unimers of the ELPs)” value ([1]; BSA stable from 10 to 37° C., ELPs as unimers below assembly temperature) was “around 4 nm”, the formation of nanoparticles [1] was “form nanoparticles at physiological temperatures” and the “critical nanoparticle temperature (CNT)” value ([1]; dynamic light scattering) was 26.5 °C. For the same molecule, the “Hydrodynamic radius (nm) at 37° C.” value ([1]; dynamic light scattering) was 23.7 nm, the “hydrodynamic diameter of nanoparticles” value ([1]; dynamic light scattering, self-assembled nanoparticles) was “around 40 nm” and the “cellular uptake / fluorescence localisation” value [2] was “slightly more intense fluorescence on the cell surface”. For the same molecule, the “Transition Temperature T1” value ([3]; first phase transition, optical density, 25 μM in PBS) was 26.5 °C, the Critical aggregation temperature ([3]; 25 μM in PBS) was 26.5 °C and the “Transition Temperature T2” value ([3]; second phase transition, optical density, 25 μM in PBS) was 75 °C.

B3: knob-(VPGIG)96Y (SEQ ID. NO: 9) (protein)
chain: VPGIGVPGIGVPGIGVPGIGVPGIGVPGIGVPGIGVPGIGVPGIGVPGIGVPGIGVPGIGVPGIGVPGIGVPGIGVPGIGVPGIGVPGIGVPGIGVPGIGVPGIGVPGIGVPGIGVPGIGVPGIGVPGIGVPGIGVPGIGVPGIGVPGIGVPGIGVPGIGVPGIGVPGIGVPGIGVPGIGVPGIGVPGIGVPGIGVPGIGVPGIGVPGIGVPGIGVPGIGVPGIGVPGIGVPGIGVPGIGVPGIGVPGIGVPGIGVPGIGVPGIGVPGIGVPGIGVPGIGVPGIGVPGIGVPGIGVPGIGVPGIGVPGIGVPGIGVPGIGVPGIGVPGIGVPGIGVPGIGVPGIGVPGIGVPGIGVPGIGVPGIGVPGIGVPGIGVPGIGVPGIGVPGIGVPGIGVPGIGVPGIGVPGIGVPGIGVPGIGVPGIGVPGIGVPGIGVPGIGVPGIGVPGIGVPGIGVPGIGVPGIGVPGIGVPGIGVPGIGY
With B3 the “phase transition behaviour in optical density over temperature gradient” value [3] was “phase-separates near room temperature”.

B4: knob-(VPGSG)96Y (SEQ ID. NO: 8) (protein)
chain: VPGSGVPGSGVPGSGVPGSGVPGSGVPGSGVPGSGVPGSGVPGSGVPGSGVPGSGVPGSGVPGSGVPGSGVPGSGVPGSGVPGSGVPGSGVPGSGVPGSGVPGSGVPGSGVPGSGVPGSGVPGSGVPGSGVPGSGVPGSGVPGSGVPGSGVPGSGVPGSGVPGSGVPGSGVPGSGVPGSGVPGSGVPGSGVPGSGVPGSGVPGSGVPGSGVPGSGVPGSGVPGSGVPGSGVPGSGVPGSGVPGSGVPGSGVPGSGVPGSGVPGSGVPGSGVPGSGVPGSGVPGSGVPGSGVPGSGVPGSGVPGSGVPGSGVPGSGVPGSGVPGSGVPGSGVPGSGVPGSGVPGSGVPGSGVPGSGVPGSGVPGSGVPGSGVPGSGVPGSGVPGSGVPGSGVPGSGVPGSGVPGSGVPGSGVPGSGVPGSGVPGSGVPGSGVPGSGVPGSGVPGSGVPGSGVPGSGVPGSGVPGSGVPGSGVPGSGVPGSGY
With B4 the “Hydrodynamic radius (nm) at 37° C.” value ([1]; dynamic light scattering) was 5.3 nm, the “phase transition behaviour in optical density over temperature gradient” value [3] was “well above physiological conditions” and the Critical aggregation temperature ([3]; 25 μM in PBS) was 68.2 °C.

B5: (VPGSG)96 (SEQ ID. NO: 13) (protein)
chain: VPGSGVPGSGVPGSGVPGSGVPGSGVPGSGVPGSGVPGSGVPGSGVPGSGVPGSGVPGSGVPGSGVPGSGVPGSGVPGSGVPGSGVPGSGVPGSGVPGSGVPGSGVPGSGVPGSGVPGSGVPGSGVPGSGVPGSGVPGSGVPGSGVPGSGVPGSGVPGSGVPGSGVPGSGVPGSGVPGSGVPGSGVPGSGVPGSGVPGSGVPGSGVPGSGVPGSGVPGSGVPGSGVPGSGVPGSGVPGSGVPGSGVPGSGVPGSGVPGSGVPGSGVPGSGVPGSGVPGSGVPGSGVPGSGVPGSGVPGSGVPGSGVPGSGVPGSGVPGSGVPGSGVPGSGVPGSGVPGSGVPGSGVPGSGVPGSGVPGSGVPGSGVPGSGVPGSGVPGSGVPGSGVPGSGVPGSGVPGSGVPGSGVPGSGVPGSGVPGSGVPGSGVPGSGVPGSGVPGSGVPGSGVPGSGVPGSGVPGSGVPGSGVPGSGVPGSGVPGSG
In the case of B5, the formation of nanoparticles [1] is reported as “do not form nanoparticles”.
